Test: yeast display, Sf9 membrane polyspecificity reagent, FACS + sequencing; frameworks hold sequencing errors
Method in brief: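 Galactose induction of a Saccharomyces cerevisiae BJ5465 synthetic nanobody display library ran 36–48 hours. The cells were then stained for 1 hour at 4 °C with 10% biotinylated, detergent-solubilized Sf9 membrane reagent, pulled down on streptavidin microbeads and FACS-sorted into low and high (top ~1%) gates on expression and reagent-binding fluorescence. Labels for polyreactivity follow the gate of origin.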

Sequence	polyreactivity (PSR sort gate)
QVQLVESGGGLVQAGGSLRLSCAASGIIFLGYVMGWYRQAPGKERELVAAISSSGGRTYYADSVKGRFTISRDNAKNTVYLQMNSLKPEDTAVYYCARYSYRGTNVRYDYWGQGTQVTVSS	high polyreactivity
QVQLVESGGGLVQAGGSLRLSCAASGSTFRLYAIGWYRQAPWKERELDAAISSGGTTKYADSVKGRFTISRDNAKKTVYLQMNRLKPEDTAVYYCNAVYHWGNPGEYATLPRYDYWGQGTQVTVSS	high polyreactivity
QVQLVESGGGLVQAGGSLRLSCAASGFTFSSYARGWYRQAPGKEREFVAAIRFSGGSTYYADSVKGRFTISRDNAMNTVYLQMNSLKPVDTAVYYCAKRWGIWPRGYYWGQGTQVSVSS	low polyreactivity
QVQLEESGGGLVQAGGSLRLSCAASGRISESNDRGWYRQAPGKERQLVAAISSSGGSTYYADSVKGRFTISRDTAKNTVYLQLNSLKPEDTAVYYCAREYIFSVYDYSTSYYYWGQGTQVTVSS	low polyreactivity
QVQLVESGGGLVQAGGSLRLSCAASGRIFFAYAMGWYRQAQGKEREFVAAISDNDGSTYYADSVKGRFTISRDNAKNTVYLQMNSLKPEDTAVYYCNADLGYVYDYCGQGTQVTVSS	low polyreactivity
QVQIVESGGGLVQAGGSLRLSCAASGSTFDYYAMGWYRQAPGKERELVAGISASGGSTYYADSVKGRFTISRDNAKNTVYLQMNRMKPEDTAVYYCASYYKPPGYDYWGQGTQVTVSS	low polyreactivity
QVQLVESGGGLVQAGGSLRLSCAASGSIFYVYAMGWYRQAPGKERELVAAITNYADSVMGRFTISRDNAKNTVYLQMNSLKPEDTAVYYCAADWWRVEMDYWGLGTQVTVSS	low polyreactivity
QVQLVESGGGLVQAGGSLSLSCAASGRIFPYNDLGWYRQAPGKERELVADINSGDSTNYADSVKGRFTISRDNAKNTVYLQMNSLKPEDTAVYYCAAGYVRYPGVIDEYWGQGTQVTVSS	low polyreactivity
QVQLVESGGGLVQAGGSLRLSSAASGSTFVQNAIGWYRQAPGKERELVAAISRTGGSTYSAHSVKGRFTIYRDNAKNTVYLEMNSLKPEDTAVYYFAKRPPHYSWPTFIEFGSWGLGTQVTVSS	high polyreactivity
QLQLVESGGGLVQAGGSLRLICAASGLIFFWYTMGWYRQAPGKDRELVAAIDSGGSTYYADSVKGRFTNSRDNAKYTVYLEMISLKPEDTAVYYCAADSFYLYIEYYYWGQGTQVTVSS	high polyreactivity
QVQLVESGGGLVQAGGSLRLSCAASGFIFSRYAMGWYRQAPGKERELVAAISIGGSTYYADSVKGRFTISRDNAKNTVYLQMNSLKPEDTAVYYCAVDYRHSSSWNAGPWEMYYWGQGTQVTVSS	low polyreactivity
QVQLVESGGGLVQAGGSLRLSCAASGSIFRVYAMGWYRQAPGKERELVASISRRGGSTYYADSVKGRFTISRDYAKNTVYLQMNSLKPEDTAVYYCAAEFVIGGHGYDYWGQGTQVSVSS	high polyreactivity
QVQLVESGGGLVQAGGSLRLSCAASGNILEGYTMGWYRQAPGQERELVATISGRGGSTYYADSVKGRFTMSRDNAKNTVYLQMHSLKPEDTAVYYCNALPWALYESTSIYYYWGQGTQVTVSS	low polyreactivity
QVQLVESGGGLVQAGGSLRLSCAASGSIFGYYTMGWYRQAPGKERELVAGIDFITTSTYYADSVKGRFTISRDNAKNTVYLQMNSLKPEDTAVYYCNADPFTGYDYWGQGTQVTVSS	low polyreactivity
QVQLVESGGGLVQAGGSLRLSCAASGSIYIVNVMGWYRQAPGKERELVAGITTNGGITYYADSVKGRFTISRDNAKNTVYLQMNSLKPEDTAVYYCATRSGSPSSIEMDYWGQGTQVTVSS	low polyreactivity
QVQLVESGGGLVHAGGSLRLSCAASGSTFGRYTMGWYRQAPGKERELVAAISYSSGRTYYADSVKGRFTISRDNGKNTVYLQMNSLKAEDSAVYYCAAVSRGRGEYDYWGQGTQVTVSS	high polyreactivity
QVQLVESGGGLVQAGGSLRLSCAASGSTFWVNALGWSRQAPGKERELVAVITVTGSRTYYADSVKGRFTISRDNAKNTVYLQMNTLKPEDTAVYYCAADRRRVQYKFDYWGQGTQVTVSS	low polyreactivity
QVQLVESGGGLVQAGGSLRLSCAASGSTFVRNAMGWYRQAPGKERELVAAITSSGGSTYYADSVKGRFTISRDNAKNTVYLQMNSLKPEDTAVYYCNAELGSDTANYDYWGQGTQVTVSS	low polyreactivity
QVQLVESGGGLVQAGGSLRLSCAASGSTSSVMLWMGWYRQAPGKEREFVAGISWIDATTYYADSVKGRFTISRDNAKNTVYLQMNSLKPEDTAVYYCAADVRWLWYWYGRYDYWGQGTQVTVSS	high polyreactivity
QVQLVESGGGLVQAGGSLRLSCAASGFTFIYYAMGWYRQAPGKERELVAAISKRGGSTYYADSVKGRFTISRDTAKNTVYLQMYSLKPEDTAVYYCAPAFGQRRYDYWGQGTQVTVSS	high polyreactivity
QVQLLESGGGLVQAGGSLRLSCAASGSTIRVNGMGWYRQAPGKERELVAVISWSGGSTYYADSVKGRFTISRDNAKNTVYLQMNSLKPEDTAVYYCNKLIYDEDEYWGQGTQVSVSS	high polyreactivity
QVQLVESGGGLVQAGGSLRLSCAASGRIFSKNAMGWCRQAPGKERELVAGITSISGSTYYADSVKGRFTISRDNAKNTVYLQMNSLKPEDTAVYYCAARFPHRHYLLYTYDYWGQGTQVTVSS	low polyreactivity

Sequence	polyreactivity (PSR sort gate)
QVQLVESGVGLVQAGGSLSLSCAASGPYYFMGWYRQAPGKESELVAAITRRGGRTYYADSVKGRFTISRDNANITVYLQMNSLKPEDTAVYYCAAKYRYHVSGYDYWGQGTQVTVSS	high polyreactivity
QVQLVESGGGLVQAGGSLRLSCAASGITFGVYTMGWYRQAPGKEREFVAVISGRGGSTYYADSVKGRFTISRDNAKNTVYLQMNSLKPEDTAVYYCAADYYYIVDYWGQGTQVTVSS	high polyreactivity
QVQLVESGGGLVQAGGSLRLSCAAYGYIFLRNAMGWYRQAPGKERELVAAIRRTGGSTYYADSVKGRFTISRDNAKNTVYLQMNSLKPEDTAVYYCAKRSYTGYEYWGQGTQVTVSS	low polyreactivity
QVQRVESGGGLVQAGGSLRLSCAASGRTFAPYAMGWSRQAPGKARELVAGITYGGSRTYYADSVKGRFTISRDNAKNTVYLQMNSLKPEDPAVYYCNARSYPYQIRYVTYGAGYYYWGQGTQVTVSS	high polyreactivity
QVHLVESGGGLVQAGGSLRISCAASGRIFRRYAMGWYRQAPGKERELVAAITRSGGSTYYADSVKGRFTISRDNAKNTVYLQMNSLKPEDTAVYYCNAPSSLGTDYDYWGQGTQVTVSS	high polyreactivity
QVQLVESGGSLVQAGGSLRLSCAASGFIFIRYAMGWYRQAPGKERELVAAITTSTGRTYYADSVKGRFTISRDNAKNTVYLQMNSLKPEDTAVYYCAAVPWKRYDYYTPFARGYWGQGTQVTVSS	low polyreactivity
QVQLVESCGGLVQAGGSLRLSCAASGSIFSRNTMGWYRQAPCKERELVAGISSSGSRTYYADSVKGRFTISRDNSKNTVYLQMNSLKPEYTAVYYCAAEHQRSRGRRYYIGYDYWGQGTQVTVSS	low polyreactivity
QVQLVESGVGLVQAGGSLRLSCAASGSTFGGYAMGWYRQAPGKERELVAAITSRSGRTYYADSVKGRFTISRDIAKNTVYLQMNSLKPEDTAVYYCATPQYPGRDYWGQGTQVTVSS	high polyreactivity
QVQLVESGGGLVQAGGSLRLSCAASGSRFSHYSMGWYRQAPGKERDLVATITGTGVRTSYADSVKGRFTISRDNAKNTVYLQMNSLKAEDTAVYYCAADGDYDPNLYGYWGQGTQVTVSS	low polyreactivity
QVQLVESGGGLVHAGGSLRLSCADSGSIFGWYVMGWYRQAPGKVREFVAAISSVGSTYYADSVKGRFTISRDNAKNTVSLQMNSLKPEDTAVYYCAKLRYPYLFWDDSEYWGQGTQVTVSS	low polyreactivity
QVQLVESGGGLVQAGGSLRLSCAASGRILATYTKGWYRPAPGKERELVATITSGGRTTYADSVKGRFTISRDNAKNTVYLQMNSLKPEDTAVYYCNVAYWYYRKYRPLWGRDYYWGQGTQVTVSS	high polyreactivity
QVQLVESGGGLVQAGGSLRLSCAASGRIFIRYAMGWYRQAPGKERELVAVITTGGSTNADSVKGRFTISRDNAKNTVYLQMNSVKPEDTAVYYCNAKVRVYTRGYFRYWYDYWGQGTQVTVSS	high polyreactivity
QVQLVESGGGLFQAGGSLRLSCAPSGRIFRYNAMGWYRQAPGKERELVASISGSGGSTYYADSVKGRFTISRDNAKNTVYLQMNSLTPEDTAVYYCAAQWRYQYPESLESYYWGQGTQVTVSS	high polyreactivity
QVQLVESGGGLVQAGGSLRLICAASGSTFYPNAMGWYRPAPGKERELVAAITSAGSTYYADSVKGRFTISRDNAKNTVYLQMNSLKPEDTAVYYCAKRRASRYDWGQGTQVTVSS	high polyreactivity
QVQLQESGGGLVQAGGSLRLSCAASGSIFYEFYMGWYRQAPGKERELVAAIANGASTHYADSVKGRFTISRDNSNNTVYLQMSSLKQEDTAVYYCAVNTTSDIDYIYWGQGTQVNVSS	low polyreactivity
QVQLVESGGGLVQAGGSLRLSCAASGITFNGYAMGWYRQAPGKERELVAAISSSGGRTRYADSVKGRFTISRDNAKNTVYLQMNSLKPEDTAVYYCNARGYGQSNYWGQGTQVTVSS	high polyreactivity
QVQLVESGGGLVQAGGSLRLSCAASGSTFGTYAMGWYRQAPGKERELVAAINTSGGSTTYADSVKGRFTISRDNAKNTVYLQMNSLKPEDTAVYYCAKDTTGDAYSEYDYWGQGTQVTVSS	low polyreactivity
QVQLVESGGGLVQAGGSLRLSCSASGSTFYPYAMGWYRQAPGKERELVAAISSGGSTSYADSVKGRFTISRDNAKNTVYLQMNSLKPEDTAVYYCNASSPGAVPVYDYDYWGQGTQVTVSS	low polyreactivity
QVQLVESGGGLDQAGGSHRLSCAASGSTFYPYAMRWYRQAPGKERELVAGITVIDGSTYYADSVKGRFTMSRDNAKNPVYFQMNSLKPEDTAVYYCAVDGPNQVQEYGYWGQGTQVTVSS	low polyreactivity
QVQLVESGGGLVQAGGSLRLSCAASGNIFRNNAMGWYRQAPGKERELVAAISRGGSTYYADSVKGRFTISRDNAKNTVYLQMNSLKPEDTAVYYCNKYSSRAYNYWGQGTHVTVSS	high polyreactivity
QVQLVESGGGLVQAGGSLHLSCAASGRIFGKYAMGWYRQAPGKEREFVAAIRSSDGNTYYADSVKGRFTISRDNAKNTVYLQMNSLKPEDTAVYYCAARGTLWTYGYWGQGTQVTVSS	high polyreactivity

— the nanobody polyreactivity screen of Harvey et al. (2022)
